{"source": "paper PMC12106912", "about": "(International Journal of Nanomedicine, 2025)", "binders": {"B1": {"name": "Hbp-hGC33-scFv/Myc fusion protein displayed on the membrane surface of E. coli outer membrane vesicles (hGC33-OMVs) (scFv, V domains shown)", "VH": "QVQLVQSGAEVKKPGASVKVSCKASGYTFTDYEMHWVRQAPGQGLEWMGALDPKTGDTAYSQKFKGRVTLTADKSTSTAYMELSSLTSEDTAVYYCTRFYSYTYWGQGTLVTVSS", "VL": "DVVMTQSPLSLPVTPGEPASISCRSSQSLVHSNGNTYLHWYLQKPGQSPQLLIYKVSNRFSGVPDRFSGSGSGTDFTLKISRVEAEDVGVYYCSQNTHVPPTFGQGTKLEIK"}}, "target": "Glypican-3 (GPC3), surface antigen of HepG2 cells (Homo sapiens (endogenous, HepG2), UniProt P51654)", "sequence (P51654 25-580)": "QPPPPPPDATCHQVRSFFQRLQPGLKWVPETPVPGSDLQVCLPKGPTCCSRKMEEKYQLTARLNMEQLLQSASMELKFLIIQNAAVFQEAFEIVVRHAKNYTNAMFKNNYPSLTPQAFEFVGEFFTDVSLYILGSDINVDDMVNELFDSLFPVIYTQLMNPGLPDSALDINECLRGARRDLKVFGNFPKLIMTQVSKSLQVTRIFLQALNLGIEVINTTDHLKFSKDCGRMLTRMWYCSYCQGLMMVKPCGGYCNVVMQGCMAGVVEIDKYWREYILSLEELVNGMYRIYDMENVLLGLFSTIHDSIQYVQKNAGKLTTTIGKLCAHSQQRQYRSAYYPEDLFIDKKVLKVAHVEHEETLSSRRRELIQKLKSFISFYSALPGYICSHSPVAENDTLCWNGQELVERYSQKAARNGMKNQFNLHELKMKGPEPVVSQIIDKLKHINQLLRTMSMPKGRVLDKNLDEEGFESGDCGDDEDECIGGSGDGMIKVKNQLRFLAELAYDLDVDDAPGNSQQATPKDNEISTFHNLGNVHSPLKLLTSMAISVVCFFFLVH", "experiment": "co-IP"}
{"binder": "B1", "values": [{"measurement": "binding result", "value": "binds"}]}
